Measured values taken from the supplement of paper PMC12764529.
± gives the half width of the 95% confidence interval.

Test: folding stability dG unfold from trypsin proteolysis; higher = more stable
Summary of the method: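 Unfolding free energy was derived, per protease or combined, by relating Bayesian-fitted K50 values from sequencing counts to a sequence-predicted unfolded-state K50 and a shared folded-state K50. The underlying digests exposed cysteine-free mini-proteins under 80 residues, in a PA-tagged cDNA display construct, to trypsin and chymotrypsin at 11 threefold-diluted concentrations and to a no-protease condition. A filter kept only designs with AlphaFold2 dimer inter-PAE above 15.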

Sequence | folding stability dG unfold
SSSSEVKVERYPDSYLVTITIREGDKEVGTLSYPLNGSLTVEEVLEEVQKRYPDLPVSFSTSVPVPPPAPSA [r9_364_JUSTAS] | 3.46 ± 0.11 kcal/mol
SAGGSAGGMVIEFPKEKVEEVKKELLDAGKPDWVIVTDPNDPDIIKIMPKSLAEEKGWKYTPLLSAGGSAGG [r6_710_JUSTAS] | 2.33 ± 0.073 kcal/mol
SAGGSAGGSAKKIKIKIKVYNPETKEVLELEIEVSEEEAEELAKKLAEELEKKGYKIEEVEISAGGSAGGSA [r18_3_TrROS_Hall] | 4.48 ± 0.35 kcal/mol
SAGMARIIPNPPVIEVVRKDGSKLVIPPEEIEELRAALEAKGGPYTPEEIAEAIRKLFPDYEVSIVPASAGG [r19_46_TrMRF] | -0.284 ± 0.38 kcal/mol
SMVEIKVEPEKSIIKATLTLKDKTVEEIKQLAKEYFEKLGYKIKVEVKEVKTFEDSVTLKFEIKVPKGLVSA [r9_347_JUSTAS] | 1.94 ± 0.1 kcal/mol
SAGGSQRFRITELVVPEDDGNLFIRVRGPNGKSMFMPASDIEKARKNGKEIEFPFPNGQPFEVEIISAGGSA [r2_301_TrROS] | -0.34 ± 0.44 kcal/mol
SAGGSAGGSSMKVEVTVEPVDPARGLYRVTITLYDPNSDTPLKTVPVLAESPEEIEAAILELLSAGGSAGGS [r12_26_JUSTAS] | 2.55 ± 0.11 kcal/mol
SAGMISSVSSEPSTNTTTATIPETGKTITYNPETGTLTVTPPTGNPSVIPVETPEEAERAMEEVIAELSSAG [r5_467_JUSTAS] | 1.11 ± 0.041 kcal/mol
SAMIEILSIEEFTRPDGKKLYKITLKTPDPEKVLEKLIELGVKPEIDPNNPDILIAVFPYEKIEEILKESAG [r14_777_TrMRF] | 3.12 ± 0.14 kcal/mol
SAGGSPPDKWVTLPFTMRYPDNGLEVEVNIVINPDDGKIQVEMEVYDNGKPKQEVPATIPADEIKLSAGGSA [r2_188_TrROS] | 0.639 ± 0.035 kcal/mol
SAGGPDWKTVEVEIQVKDPEDRPEAIEEAEEWAQELAENNPGYKIKGVDVEIWPHNGWYQIRIPITVESAGG [r13_305_TrROS] | 0.733 ± 0.1 kcal/mol
SAKFRVTEIHPNGNNFEIRIERYDPNGEKKKLPIPVNADNMQIDEVDGDKITIYFPNNGREITLPLEDLSAG [r14_947_TrROS] | -0.594 ± 0.34 kcal/mol
SAGGSAGGGPDPSLPPPEVIEVVLPPDTLFRPPGGGYLSPEEVVELAKELEEREGIKATVTIRPSAGGSAGG [r6_162_JUSTAS] | 1 ± 0.09 kcal/mol
SAGNIKIEDIEPNDDYYTLVIKAPENGRTIMIQYNPNNNRIPIMIFPPGGVRTIPIPMNDIEDFLKEILSAG [r5_769_TrROS] | 0.79 ± 0.086 kcal/mol
SAGGSAGGSPKPIPIKIDEVWPNPDNGKDYIVKIEFPDGKKHTFTSPEDIRKLPGFDVEVYELSAGGSAGGS [r20_192_TrROS] | 0.123 ± 0.058 kcal/mol
SAGMETVTVEVDGATITFVKNEDGTVTAIVTYPNGEVEIYNADGELIRRERLPNGLVVFEFTKEELEKLSAG [r5_457_TrROS_Hall] | 1.19 ± 0.057 kcal/mol

Sequence | folding stability dG unfold
SAGGSAGGSAGGKVVKFTRPDGKPVDAKKILSYDPDKPKLYVLVEDEGPVELREVDADKDSAGGSAGGSAGG [r7_236_TrMRF] | -0.245 ± 0.22 kcal/mol
SAGGSASNIKTEEKEYPDGKVVVKYSSDPNITYVYYYPPGGLELVETLDSNGNVISKKLVPKGKLISAGGSA [r15_419_JUSTAS] | 0.607 ± 0.049 kcal/mol
SAGGSAGGSAGGSFKIKDIEVNPDALKKGNFIQIRIENGWVIHINPNGEIEVVELPPDASAGGSAGGSAGGS [r4_373_TrROS] | 0.356 ± 0.083 kcal/mol
SAGGSAGGSAMSVVVKYTVLLTDPVTGKTTVVPVTATLPVSDGTAKTIEEIVAEHPNYEILESAGGSAGGSA [r18_267_JUSTAS] | 1.81 ± 0.068 kcal/mol
SAGGSAGGSAGGSPNWVWILITVKITFPIYKYDPDGKPLEPIEITIEFTVLIRIPPGDFSAGGSAGGSAGGS [r4_425_TrROS] | 3.63 ± 0.19 kcal/mol
SAMKIEIIEEKEGEIIIKIEATKEEVEELAEELKKKFPGVEVEVEYDKETKKVYIRIKFKKKPSEEELKSAG [r14_600_TrROS_Hall] | 3.05 ± 0.62 kcal/mol
SAGGSAGGSAPPDEGQKWVPVTFPIEFPLPDGNKVKIPIDFWYPKEDGKPIAMQIEWWAKNSAGGSAGGSAG [r3_484_TrROS] | 0.373 ± 0.13 kcal/mol
SAGGDPVRIFIMSGNGIFPIEIPLDPGEKVEFEMKFNGQEVTITITPGDGEIEIEMPPGFNIMALEPSAGGS [r16_761_TrROS] | 1.59 ± 0.086 kcal/mol
SAGGSKLKNLKSKPFPITFENGGKVTLNVVNIPKSSKPVVNITVIEPNSGKKKTFTVPLEEAKNLLSAGGSA [r2_366_TrMRF] | 0.394 ± 0.071 kcal/mol
SAGGSAGGSAGPLKIKKLELRKLPDGFVEMTAEFEGPENYTVRLIVRKDDPNKLVLEVFPSAGGSAGGSAGG [r11_618_TrROS_Hall] | 2.07 ± 0.095 kcal/mol
SAGGSAGGSAGGPLPGKPPLRLKLFTLTVRTRTYRKTEDGTWEEVEESEAEITVLVLEPVSAGGSAGGSAGG [r7_506_TrROS_Hall] | 3.45 ± 0.11 kcal/mol
SAGGSAGGSKPIVAPVSVEDLTLEGLKALVDSHPEGEVPIFVTRSDGKPLVITVLPDGELSLDSAGGSAGGS [r12_1054_TrMRF] | 0.17 ± 0.019 kcal/mol
SAGGSAPRIRVHFWNPNTGQWHHIPVERLKKAIDKNPPGEELEFPIPGYPVKVQVEPDDGTIWIRMSAGGSA [r15_350_TrROS] | 1.01 ± 0.061 kcal/mol
SAGGSGRQMVRNIVRHALDQQQQHGKPIDKIYIFGPPNMRKEIKKELEEEGLPPGVKITIVPAEDMQSAGGS [r16_164_TrROS] | 0.761 ± 0.13 kcal/mol
PPPDVPVETETKTSTSTLPDGSRLTTTTTTTRAPNGYYYDTTSVTTTVAPDGTVTTTSTSTTKGPLPAALLS [r1_129_JUSTAS] | 1.81 ± 0.12 kcal/mol
SAGGSAGGKPKKVKIKIEITYNKETGVVKIKIEVEVDGKTYTIEIEVKLKPGQTIEELLKKLLESAGGSAGG [r6_20_TrROS_Hall] | 2.84 ± 0.24 kcal/mol
